Results from the nanobody polyreactivity screen of Harvey et al. (2022).

Test: yeast display, Sf9 membrane polyspecificity reagent, FACS + sequencing; frameworks hold sequencing errors
How it was run: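 Synthetic nanobody libraries on Saccharomyces cerevisiae BJ5465 were galactose-induced for 36–48 hours, stained 1 hour at 4 °C with 10% biotinylated, detergent-solubilized Sf9 membrane reagent and enriched on streptavidin microbeads. FACS then separated cells into low and high (top ~1%) gates by anti-HA (expression) and streptavidin (reagent binding) fluorescence. Genes were colony-PCR amplified, MiSeq 2 × 250 sequenced and CDR-length filtered. A clone's polyreactivity label is that of its gate of origin.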

Sequence	polyreactivity (PSR sort gate)
QVQLVESGGGLVQAGGSLRLSCAASGSTFKPYTMGWYRQAPGKERELVAGISSVDSTYYADSVKGRFTISRDNAKNTVYLQMNSLKPEDTAVYYCAADTVYIFSSAINGEFGYWGQGTQVTVSS	low polyreactivity
QVQLVESGGGLVQAGGSLRLSCAASGITFYVYAMGWYRQAPGKERELVAAISRRGGSTSYADSVKGRFTISRDNAKNTVYLQMNSLKPEDTAVYYCAAGPFYGGIVRRYDYWGQGTQVTVSS	low polyreactivity
QVQLVESGGGLVQAGGSLRLSCAASGSIFGRYAMGWYRQAPGKERELVASINWNSGSTYYADSVKGRFTISRDNAKNTVYLQMNSLKPEDTAVYYCAAAALGYYGYWGQGTQVTVSS	low polyreactivity
QVQLVESGGGLDQAGGSLRLSCAASGLIFKLYDMGWSRQAPGKERELVATISRGTSTYYADSVKGRFTISRDNAKNTVDLQMNSLKPEDTAVYYCNARLDYGRAFPLFKYISGMYYWGQGTQVTVSS	low polyreactivity
QVQLVESGGGLVQAGGSLRLSCAASGFTFRRNAMGWYRQAPGKERELVAAITYNGGTTYYADSVKGRFTISRDYAKNTVYLQMNSLKPVDTAVYYCNAPYGRQGYDYWGQGTQVTVSS	low polyreactivity
QVQLVESGGGLVQAGGSLRLSCAASGLIFRRYAMGWYRQAPGKERELVAAISRTGGTTYYADSVKGRFTISRDNAKNTVYLQMNSLKPEDTAVYYCAAAGQGPDYDYWGQGTQVTVSS	high polyreactivity
QVQLVESGGGLVQAGGSLRLSCAASGYTIIVNAMGWYRQAPGKERELVAAISWSSVSTYYADSVKGRFTISRDNAKNTVYLQMNSLKPEDTAVYYCAAEGYDYSQWFDYWGQGTQVTVSS	high polyreactivity
QVQLVESGGGLVQAGGSLRLSCAASGSIFYSNAMGWYRQAPGKERELVAAISFTGGTTYYADSVKGRFTISRDNAKNTVYLQMNSLKPEDTAVYYCNKLYHHYYGYWGQGTQVTVSS	high polyreactivity
QVQLVESGGGLVQAGGSLRLSCAASGRIFTYYVMGWYRQAPWKERELVAAISYGGGSTYYADSVKGRFTISRDNAKNTVYLQMNSLKPEDTAGYYCAAEDGYRKMDYWGQGTQVTVSS	low polyreactivity
QVQLVESGGGLVQAGGSLRLSCAASGSIIKVYAMGWYRQAPGKERELVAAITSDGSTYYADSVKGRFTISRDNAKNTVYLQLNSLKPVDTAVYYCAASVYYLYFHGKYDYWGQGTQVTVSS	low polyreactivity
QVQLVESGGGLVQAGGSLRLSCAASGITFFGYAMGWYRQAPGKERELVAGISRSTGRTYYADSVKGRFTISRDNAKNTVYLHMNSLKPEDTAVYYCNAELYPWPGVVRYNYWGQGTQVTVSS	high polyreactivity
QDQLVESGGGLVQAGGSLRLSCAASGFIFDDNAMGGYRQAPGKERELVAAITSGGGSTYYADSVKGRFTISRDNAKYTVYLQMNSLKPEDTAVYYCNAVPSQHDEFDYWGQGTQVTVSS	low polyreactivity
QVQLVESGGGLVQAGGSLRLSCAASGRTYAAYAMGWYRQAPGKERELVAAISIGGSTNYADSVKGRFTISRDNAKNTVYLLMNSLKPEDTAVYYCAAGTWAVSKYLEWLEFYYWGKGTQVTVSS	high polyreactivity
QVQLVESGGGLVQAGGSLRLSCAASGSIFHPYGMGWYRQAPGKERELVAAITSSGGDTYYADSVKGRFTFSRDIAKNTVYLQMISLKPEDTAVYYCAATGLPGYYAYDYWGQGTQVTVSS	low polyreactivity
QVQLVESGGGLVQAGGSLRLSCAASGIILGDYAMGWYRQAPGKERELVAAITSTGGRTYYADSVKGRFTISRDNAKNTVYLQMNSLKPEDTAVYYCAAQGSYRRYRPYYYWGQGTQVTVSS	high polyreactivity
QVQLVESGGGLVQAGGSLRLSCAASGGNFGYYAMGWYRQAPGKEREFVAAITLSGGRTYYADSVKGRFTISRDNAKNTVYLQMNSLKPEDTAVYYCAAKGTRRGKERNYWGQGTQVTVSS	high polyreactivity
QVQLVESGGGLVQAGGSLRLSCAASGSIFWWNAMGWYRQAPGKERELVGAITVSGSSTHYADSVKGRFTISRDNAKNTVYLQMNSMKPEDTAVYYWGQGTQVTVSS	low polyreactivity
QVQLVESGGGLVQAGGSLRLSCAASGSTFRYYAMGWYRQAPGKERELVAAISGTGSTYYADSVKGRFTISRDNAKNTVSLQMNSLKPEDTAVYYCGAYPRGSQRYNYWGQGTQVTVSS	high polyreactivity
QVQLVESGGGLVQAGGSLRLSCAASGSIFYRYAMGWYRQAPGKERELVAAISSNGVSTYYADSVKGRFTISRDNAKNTVYLQMNSLKPEDTAVYCCARDVYASPRLYTSRYNYWGQGTQVTVSS	low polyreactivity
QVQLVESGGGLVQAGGSLRLSCAASGSTFSSYAMGWYRQAPGKERELVAAISSSGGTSTYADSVKGRFTISRDNAKNTVYLQMNSLKPEDTAVYYCAARQYRRLRDYRHDYWGQGTQVTVSS	high polyreactivity
QVQLVESGGGLVQAGGSLRLSCAASGSIFGDYVMGWYRQAPGKERELVAAINRGGSTYYADSVKGRFTISRDNAKNTVYLQMNSLKPEDTALYYCAAGYPSWYYGYPYDSWGQGTQVTVSS	low polyreactivity
QVPLVESGGGLVQAGGSLRLSCAASGGIFGRYAMGWYRQAPGKERELVAALSARGGSSYYADSVKGRFTISRDNAKNTVYFQMNSLKPEDTAVYYCNALWVSYYTFRMDYWGQGTQVTVSS	high polyreactivity

Sequence	polyreactivity (PSR sort gate)
QVQLVESGGGLVQAGGSLRLSCAASGRIFRWYAMGWYRQAPGKERELVAAISYSGGSTYYADSVKGRFTISRDNAKNTVYLQMNSLKPEDTAVYYCAAATYYKFDYWGQGTQVTVSS	high polyreactivity
QVQLVESGGGLVQAGGSLRLSCAASGSIFGRYGMGWYRQAPGKERELVAAITSGTRTNYADSVKGRFTISRDNAKNTVYLQLNSLKPEDTAVYYCNALRLRGNYEYGYWGLGTQVTVSS	low polyreactivity
QVQIVESGGGLVQAGGSLRLTCAASGSILWYNTMGWYRQAPGKERELVAAIRTSGSRTYYADSVKGRFTISRDNAKNTVYVQMNSLKPEDTAVYYCAAERGSQRVRSGYWGQGTQVTVSS	high polyreactivity
QVQLVESGGGLVQAGGSLRLSCAASGRILRSNAMGWYRQAPVKERELVATISQRGGSTYADSVKGRFTISRDNAKNTVYLQMNSLKPEDTAVYYCNVGVPIGGFMSYWGGDYWGQGTQVTVSS	low polyreactivity
QVQLVESGGGLVQAGGSLRLSCSASGIIFPTYAMGLYRQAPGKERELVAAIRWTGGSTYYADSVKGRFTISRDNAKNTVYLQMNSLKPEDTAVYYCAAAYRGRYKYYYWGQGTQVTVSS	high polyreactivity
QVQLVESGGGLVQAGGSLRLSCAASGSIFLRYAMGWYRQAPGKERELVAAITTGGGSTYYADSVKGRFTISRDNAKNTVYLQMNRLKPEDPAVYYCAKRAQYHWRGRDDYSYYYWGQGTQVTVSS	low polyreactivity
QVQLVESGGGLVQAGGSLRLSCAPSGFIFQANAMGWYRQAPGKERELLAAIDDGDSTYADSVKGRFTISRDNAKNTVYLQLNSLKPEDTAVYFCATRRNRSYDYWGQGTQVTVSS	low polyreactivity
QVQLVESGGGLVQAGGSLRLSCAASGRTFARYVMGWYRQAPGKERELVASISNSGGSTYYADSVKGRFTISRDNAKNTVYLQMNSLKPEDTAVYYCARRYYSYTTYRYDYWGQGTQVTVSS	high polyreactivity
QVQLVESGGCLVQAGGSLRLSCDAYGSTFDDNAMGWYRQAPGKERELVAGISTNGGSTSYADSVKGRFTISRDNAKNTVYLQMNSLKPEDTAVYYCAKGLYVHFDYWGQGTQVTVSS	low polyreactivity
QVQLVESGGGFFQAGGSLRLSCAASGTIGRNAMGWYRQAPGKESEFVPAISYRGTSTYYADSVKGRFTISRDNAKNTVYLQMKSLKPDDTAVYYCATYWAAGYRSRYDYWGQVTQVTVSS	high polyreactivity
QVQLVESGGGLVQAGGSLRLSCAASGRTFRENAMGWYRQAPGKERELVAAISWRAGSTYYADSVKGRFTISRDNAKNTVYLQMNSLKPEDTAVYYCAAKYTVSFYLWGTFNYWGQGTQVTVSS	high polyreactivity
QVQLVESGGGLVQAGGSLRLSCAASGSTFSGNAMGWYRQAPGKERELVAAISWSGDTTYYADSVKGRFTISRDNAKNTVYLQMNSLKPEDTAVYYCAVRYYWRRMNYWGQGTQVTVSS	high polyreactivity
QVQLVESGGGLVQAGGSLRLSCAASGSTLVTNAMGWYRQAPGKERELVAAITFSGGTTYYADSVKGRFTISRDNAKNTFYLQMNSLKPEDTAVYYCAAEIWLEYVGYDYWGQGTQVTVSS	high polyreactivity
QVQLVESGGGLVQAGGSLRLSCAASGLIFKYYAMGWYRHAPGKERELVAAITWRGGDRTYYADSVKGRFTISRDNAKNTVYLQMNSLKPEDTAVYYCAAVISSPWRFDYWGQGTQVTVSS	high polyreactivity
QVQLVESGGGLDQAGGSLRLSCAASGSTFRFNAMGWYRQAPGKEREFVAAIRFTGGSSYYSDSVKGRFTISRDNAKNTVYLQMNSLKPDDTAVYYCNNADEYSTVEYDYWGQGTLVTVSS	low polyreactivity
QVQLVESGGGLVQAGGSLRLSCAASGRIFASYAMGWYRQAPGKERELVAAITRSGGRTYYADSVKGRFTISRDNAKNTVYLQMNSLKPADTAVDYCAVDTVTRTVLVYGDRNDSWGQGTQVTVSS	high polyreactivity
QVQLVESGGGLVQAGGILRLSCAAPGSTFRKCAMGWYRQAPGKERELVAAISRGGTSTYYADSVKGRFTISRDNAKNTVYLQMNSLKPEDTAVYSCRYFRYSYGTKYDYWGQGTQVTVSS	high polyreactivity
QVQLVESGGGLVEAGGSLRLSCAASGYIFGSYAMGWYRHAPGKERELVASISKSGGSTYYADSVKGRFTISRDNAKNTVYLQMNSLKPEDTAVYYCAAAGIGGGGWGQGTQVTVSS	low polyreactivity
QVQLLESGGGLVPAGGSLRLSCAASGRIFSRYAMGWYRQAPGKERELVAAISRNGGSTYYADSVKGRFTISRDNAKNTVYLQMISLKPEDTAVYYCAASYFIYHYDFDYWGQGTQVTVSS	high polyreactivity
QVQLVESGGGIVQAGGSLRLSCAASGRIFSPNAMGWYRQAPGKERELVASISSAGSTNYADSVKGRFTISRDNAKNTVDLLMKSLIPEDTAVYYCDADQPYYGYWDWYSHEYDYWGQGTQVSVSS	low polyreactivity
QVQLVESGGGLVQAGGSLRLSCAASGYIFNLNAMGWYRQAPGKERELVAAITRSGGSTYYADSVKGRFTISRDNAKNTVYLQMNSQKPEDTAVYYCAARGPYYRPWYKYDYWGQGTQVTVSS	high polyreactivity
